Experimental data reported in patent US20150344570A1 (published 2015).

T1: FcγRIIa R (FcγRIIa, allotype with Arg at position 131), extracellular domain with C-terminal His tag (human, UniProt P12318 34-217)
T1 construct: extracellular domain; also called FcγRIIa R type; 2aR
T1 sequence (looked up): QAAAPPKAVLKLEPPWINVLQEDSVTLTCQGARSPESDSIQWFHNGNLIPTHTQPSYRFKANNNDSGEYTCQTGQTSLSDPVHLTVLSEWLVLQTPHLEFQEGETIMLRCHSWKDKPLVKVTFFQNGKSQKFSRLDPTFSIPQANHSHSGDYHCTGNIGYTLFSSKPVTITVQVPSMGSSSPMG

B1: GpH7-A5/GpH7-B3 variant P331_06M/GpL16-k0 (antibody, human IgG1, kappa)
heavy 1: not shown
heavy 2: not shown
light: DIVMTQSPLSLPVTPGEPASISCQASESLVHSNRNTYLHWYLQKPGQSPQLLIYKVSNRFSGVPDRFSGSGSGTDFTLKISRVEAEDVGVYYCSQNTHVPPTFGQGTKVEIERTVAAPSVFIFPPSDEQLKSGTASVVCLLNNFYPREAKVQWKVDNALQSGNSQESVTEQDSKDSTYSLSSTLTLSKADYEKHKVYACEVTHQGLSSPVTKSFNRGEC
notes: also called He Ab
B2: GpH7-A5/GpH7-B3 variant P331_10E/GpL16-k0 (antibody, human IgG1, kappa)
heavy 1: not shown
heavy 2: not shown
light: DIVMTQSPLSLPVTPGEPASISCQASESLVHSNRNTYLHWYLQKPGQSPQLLIYKVSNRFSGVPDRFSGSGSGTDFTLKISRVEAEDVGVYYCSQNTHVPPTFGQGTKVEIERTVAAPSVFIFPPSDEQLKSGTASVVCLLNNFYPREAKVQWKVDNALQSGNSQESVTEQDSKDSTYSLSSTLTLSKADYEKHKVYACEVTHQGLSSPVTKSFNRGEC
notes: also called He Ab
B3: GpH7-A5/GpH7-B3 variant P331_14T/GpL16-k0 (antibody, human IgG1, kappa)
heavy 1: not shown
heavy 2: not shown
light: DIVMTQSPLSLPVTPGEPASISCQASESLVHSNRNTYLHWYLQKPGQSPQLLIYKVSNRFSGVPDRFSGSGSGTDFTLKISRVEAEDVGVYYCSQNTHVPPTFGQGTKVEIERTVAAPSVFIFPPSDEQLKSGTASVVCLLNNFYPREAKVQWKVDNALQSGNSQESVTEQDSKDSTYSLSSTLTLSKADYEKHKVYACEVTHQGLSSPVTKSFNRGEC
notes: also called He Ab
B4: GpH7-A5/GpH7-B3 variant P331_09D/GpL16-k0 (antibody, human IgG1, kappa)
heavy 1: not shown
heavy 2: not shown
light: DIVMTQSPLSLPVTPGEPASISCQASESLVHSNRNTYLHWYLQKPGQSPQLLIYKVSNRFSGVPDRFSGSGSGTDFTLKISRVEAEDVGVYYCSQNTHVPPTFGQGTKVEIERTVAAPSVFIFPPSDEQLKSGTASVVCLLNNFYPREAKVQWKVDNALQSGNSQESVTEQDSKDSTYSLSSTLTLSKADYEKHKVYACEVTHQGLSSPVTKSFNRGEC
notes: also called He Ab
B5: GpH7-A5/GpH7-B3 variant S239_07I/GpL16-k0 (antibody, human IgG1, kappa)
heavy 1: not shown
heavy 2: not shown
light: DIVMTQSPLSLPVTPGEPASISCQASESLVHSNRNTYLHWYLQKPGQSPQLLIYKVSNRFSGVPDRFSGSGSGTDFTLKISRVEAEDVGVYYCSQNTHVPPTFGQGTKVEIERTVAAPSVFIFPPSDEQLKSGTASVVCLLNNFYPREAKVQWKVDNALQSGNSQESVTEQDSKDSTYSLSSTLTLSKADYEKHKVYACEVTHQGLSSPVTKSFNRGEC
notes: also called He Ab
B6: GpH7-A5/GpH7-B3 variant P331_16H/GpL16-k0 (antibody, human IgG1, kappa)
heavy 1: not shown
heavy 2: not shown
light: DIVMTQSPLSLPVTPGEPASISCQASESLVHSNRNTYLHWYLQKPGQSPQLLIYKVSNRFSGVPDRFSGSGSGTDFTLKISRVEAEDVGVYYCSQNTHVPPTFGQGTKVEIERTVAAPSVFIFPPSDEQLKSGTASVVCLLNNFYPREAKVQWKVDNALQSGNSQESVTEQDSKDSTYSLSSTLTLSKADYEKHKVYACEVTHQGLSSPVTKSFNRGEC
notes: also called He Ab
B7: GpH7-A5/GpH7-B3 variant S239_06M/GpL16-k0 (antibody, human IgG1, kappa)
heavy 1: not shown
heavy 2: not shown
light: DIVMTQSPLSLPVTPGEPASISCQASESLVHSNRNTYLHWYLQKPGQSPQLLIYKVSNRFSGVPDRFSGSGSGTDFTLKISRVEAEDVGVYYCSQNTHVPPTFGQGTKVEIERTVAAPSVFIFPPSDEQLKSGTASVVCLLNNFYPREAKVQWKVDNALQSGNSQESVTEQDSKDSTYSLSSTLTLSKADYEKHKVYACEVTHQGLSSPVTKSFNRGEC
notes: also called He Ab
B8: GpH7-A5/GpH7-B3 variant Q295_06M/GpL16-k0 (antibody, human IgG1, kappa)
heavy 1: not shown
heavy 2: not shown
light: DIVMTQSPLSLPVTPGEPASISCQASESLVHSNRNTYLHWYLQKPGQSPQLLIYKVSNRFSGVPDRFSGSGSGTDFTLKISRVEAEDVGVYYCSQNTHVPPTFGQGTKVEIERTVAAPSVFIFPPSDEQLKSGTASVVCLLNNFYPREAKVQWKVDNALQSGNSQESVTEQDSKDSTYSLSSTLTLSKADYEKHKVYACEVTHQGLSSPVTKSFNRGEC
notes: also called He Ab
B9: GpH7-A5/GpH7-B3 variant P331_18N/GpL16-k0 (antibody, human IgG1, kappa)
heavy 1: not shown
heavy 2: not shown
light: DIVMTQSPLSLPVTPGEPASISCQASESLVHSNRNTYLHWYLQKPGQSPQLLIYKVSNRFSGVPDRFSGSGSGTDFTLKISRVEAEDVGVYYCSQNTHVPPTFGQGTKVEIERTVAAPSVFIFPPSDEQLKSGTASVVCLLNNFYPREAKVQWKVDNALQSGNSQESVTEQDSKDSTYSLSSTLTLSKADYEKHKVYACEVTHQGLSSPVTKSFNRGEC
notes: also called He Ab
B10: GpH7-A5/GpH7-B3 variant P331_13S/GpL16-k0 (antibody, human IgG1, kappa)
heavy 1: not shown
heavy 2: not shown
light: DIVMTQSPLSLPVTPGEPASISCQASESLVHSNRNTYLHWYLQKPGQSPQLLIYKVSNRFSGVPDRFSGSGSGTDFTLKISRVEAEDVGVYYCSQNTHVPPTFGQGTKVEIERTVAAPSVFIFPPSDEQLKSGTASVVCLLNNFYPREAKVQWKVDNALQSGNSQESVTEQDSKDSTYSLSSTLTLSKADYEKHKVYACEVTHQGLSSPVTKSFNRGEC
notes: also called He Ab
B11: GpH7-A5/GpH7-B3 variant P331_20W/GpL16-k0 (antibody, human IgG1, kappa)
heavy 1: not shown
heavy 2: not shown
light: DIVMTQSPLSLPVTPGEPASISCQASESLVHSNRNTYLHWYLQKPGQSPQLLIYKVSNRFSGVPDRFSGSGSGTDFTLKISRVEAEDVGVYYCSQNTHVPPTFGQGTKVEIERTVAAPSVFIFPPSDEQLKSGTASVVCLLNNFYPREAKVQWKVDNALQSGNSQESVTEQDSKDSTYSLSSTLTLSKADYEKHKVYACEVTHQGLSSPVTKSFNRGEC
notes: also called He Ab
B12: GpH7-A5/GpH7-B3 variant Q295_10E/GpL16-k0 (antibody, human IgG1, kappa)
heavy 1: not shown
heavy 2: not shown
light: DIVMTQSPLSLPVTPGEPASISCQASESLVHSNRNTYLHWYLQKPGQSPQLLIYKVSNRFSGVPDRFSGSGSGTDFTLKISRVEAEDVGVYYCSQNTHVPPTFGQGTKVEIERTVAAPSVFIFPPSDEQLKSGTASVVCLLNNFYPREAKVQWKVDNALQSGNSQESVTEQDSKDSTYSLSSTLTLSKADYEKHKVYACEVTHQGLSSPVTKSFNRGEC
notes: also called He Ab
B13: GpH7-A5/GpH7-B3 variant P331_08L/GpL16-k0 (antibody, human IgG1, kappa)
heavy 1: not shown
heavy 2: not shown
light: DIVMTQSPLSLPVTPGEPASISCQASESLVHSNRNTYLHWYLQKPGQSPQLLIYKVSNRFSGVPDRFSGSGSGTDFTLKISRVEAEDVGVYYCSQNTHVPPTFGQGTKVEIERTVAAPSVFIFPPSDEQLKSGTASVVCLLNNFYPREAKVQWKVDNALQSGNSQESVTEQDSKDSTYSLSSTLTLSKADYEKHKVYACEVTHQGLSSPVTKSFNRGEC
notes: also called He Ab
B14: GpH7-A5/GpH7-B3 variant P331_15Y/GpL16-k0 (antibody, human IgG1, kappa)
heavy 1: not shown
heavy 2: not shown
light: DIVMTQSPLSLPVTPGEPASISCQASESLVHSNRNTYLHWYLQKPGQSPQLLIYKVSNRFSGVPDRFSGSGSGTDFTLKISRVEAEDVGVYYCSQNTHVPPTFGQGTKVEIERTVAAPSVFIFPPSDEQLKSGTASVVCLLNNFYPREAKVQWKVDNALQSGNSQESVTEQDSKDSTYSLSSTLTLSKADYEKHKVYACEVTHQGLSSPVTKSFNRGEC
notes: also called He Ab
B15: GpH7-A5/GpH7-B3 variant P331_07I/GpL16-k0 (antibody, human IgG1, kappa)
heavy 1: not shown
heavy 2: not shown
light: DIVMTQSPLSLPVTPGEPASISCQASESLVHSNRNTYLHWYLQKPGQSPQLLIYKVSNRFSGVPDRFSGSGSGTDFTLKISRVEAEDVGVYYCSQNTHVPPTFGQGTKVEIERTVAAPSVFIFPPSDEQLKSGTASVVCLLNNFYPREAKVQWKVDNALQSGNSQESVTEQDSKDSTYSLSSTLTLSKADYEKHKVYACEVTHQGLSSPVTKSFNRGEC
notes: also called He Ab
B16: GpH7-A5/GpH7-B3 variant S239_05P/GpL16-k0 (antibody, human IgG1, kappa)
heavy 1: not shown
heavy 2: not shown
light: DIVMTQSPLSLPVTPGEPASISCQASESLVHSNRNTYLHWYLQKPGQSPQLLIYKVSNRFSGVPDRFSGSGSGTDFTLKISRVEAEDVGVYYCSQNTHVPPTFGQGTKVEIERTVAAPSVFIFPPSDEQLKSGTASVVCLLNNFYPREAKVQWKVDNALQSGNSQESVTEQDSKDSTYSLSSTLTLSKADYEKHKVYACEVTHQGLSSPVTKSFNRGEC
notes: also called He Ab

Target: T1, FcγRIIa R (FcγRIIa, allotype with Arg …)
Experiment: SPR (Biacore), antibody captured on antigen peptide chip, FcγR as analyte; relative binding

Row | Binder | He/Con_2aR
1 | B1 | 106 % of GpH7-A5/GpH7-B3/GpL16-k0 (=100)
2 | B2 | 113 % of GpH7-A5/GpH7-B3/GpL16-k0 (=100)
3 | B3 | 104 % of GpH7-A5/GpH7-B3/GpL16-k0 (=100)
4 | B4 | 102 % of GpH7-A5/GpH7-B3/GpL16-k0 (=100)
5 | B5 | 102 % of GpH7-A5/GpH7-B3/GpL16-k0 (=100)
6 | B6 | 114 % of GpH7-A5/GpH7-B3/GpL16-k0 (=100)
7 | B7 | 101 % of GpH7-A5/GpH7-B3/GpL16-k0 (=100)
8 | B8 | 102 % of GpH7-A5/GpH7-B3/GpL16-k0 (=100)
9 | B9 | 105 % of GpH7-A5/GpH7-B3/GpL16-k0 (=100)
10 | B10 | 105 % of GpH7-A5/GpH7-B3/GpL16-k0 (=100)
11 | B11 | 110 % of GpH7-A5/GpH7-B3/GpL16-k0 (=100)
12 | B12 | 102 % of GpH7-A5/GpH7-B3/GpL16-k0 (=100)
13 | B13 | 102 % of GpH7-A5/GpH7-B3/GpL16-k0 (=100)
14 | B14 | 112 % of GpH7-A5/GpH7-B3/GpL16-k0 (=100)
15 | B15 | 110 % of GpH7-A5/GpH7-B3/GpL16-k0 (=100)
16 | B16 | 106 % of GpH7-A5/GpH7-B3/GpL16-k0 (=100)
